From publication PMC3536657 (PLoS Pathogens, 2013)
Changes are numbered by the printed parent chain. Names and notes keep the numbering of the source.

B1: 3BNC60 chimeric IgG, germline heavy chain with mature light chain (antibody, V domains shown)
VH: not shown
VL: DIQMTQSPSSLSARVGDTVTITCQANGYLNWYQQRRGKAPKLLIYDGSKLERGVPARFSGRRWGQEYNLTINNLQPEDVATYFCQVYEFIVPGTRLDLK
notes: also called gHC/mLC (3BNC60)
B2: NIH45-46 chimeric IgG, germline heavy chain with mature light chain (antibody, V domains shown)
VH: not shown
VL: EIVLTQSPATLSLSPGETAIISCRTSQSGSLAWYQQRPGQAPRLVIYSGSTRAAGIPDRFSGSRWGADYNLSISNLESGDFGVYYCQQYEFFGQGTKVQVD
B3: mature IgG b12 (antibody, V domains shown)
VH: QVQLVQSGAEVKKPGASVKVSCQASGYRFSNFVIHWVRQAPGQRFEWMGWINPYNGNKEFSAKFQDRVTFTADTSANTAYMELRSLRSADTAVYYCARVGPYSWDDSPQDNYYMDVWGKGTTVIVSS
VL: EIVLTQSPGTLSLSPGERATFSCRSSHSIRSRRVAWYQHKPGQAPRLVIHGVSNRASGISDRFSGSGSGTDFTLTITRVEPEDFALYYCQVYGASSYTFGQGTKLERK
notes: also called mature b12; mature b12 IgG
B4: b12 IgG, germline heavy chain with S31N/A52P/G53Y/G100W, paired with the mature light chain (antibody, V domains shown)
VH: QVQLVQSGAEVKKPGASVKVSCKASGYTFTNYAMHWVRQAPGQRLEWMGWINPYNGNTKYSQKFQGRVTITRDTSASTAYMELSSLRSEDTAVYYCARVGPYCWGDSPQDNYYMDVWGKGTTVTVSS
VL: B3 VL
B5: b12 IgG, germline heavy chain with G100W, paired with the mature light chain (antibody, V domains shown)
VH: B4 VH with N31S, P53A, Y54G
VL: B3 VL
B6: germline IgG b12 (antibody, V domains shown)
VH: B4 VH with N31S, P53A, Y54G, W104G
VL: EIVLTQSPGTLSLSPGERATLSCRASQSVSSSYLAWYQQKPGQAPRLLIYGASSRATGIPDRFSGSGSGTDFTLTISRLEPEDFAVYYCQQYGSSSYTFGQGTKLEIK
notes: also called germline b12; soluble germline version of IgG b12

Legend:
QH0692 gp120 = molecular target: T1, QH0692 gp120 (HIV-1 clade B, isolate QH0692, UniProt Q5G5V7, strain); test: BLI; conditions: both partners purified
T1 construct: also called QH0692 Env; recombinant QH0692 Env; source: bought: Immune Technologies

SF162 gp120 [1] = molecular target: T2, SF162 gp120 (HIV-1 clade B, isolate SF162, UniProt P19550); test: cell-based or functional assay
426c gp140 [2] = molecular target: 426c gp140 (HIV-1 clade C, 426c, UniProt M4Q8P8, strain); test: BLI; antibody-capture: IgG (15 µg/mL in PBS) on anti-human IgG Fc capture biosensors; Env in solution at one concentration (1.2 µM in the legend, 1.02 µM in the methods) in 1x kinetics buffer (PBS, 0.01% BSA, 0.02% Tween 20, 0.005% NaN3); conditions: both partners purified
SF162 gp140 trimer = molecular target: T3, SF162 gp140 trimer (HIV-1 clade B, isolate SF162, UniProt P19550, strain); test: ELISA; conditions: both partners purified
T3 construct: also called trimeric SF162 gp140

QH0692 gp140 trimer = molecular target: T4, QH0692 gp140 trimer (HIV-1 clade B, isolate QH0692, UniProt Q5G5V7, strain); test: ELISA; conditions: both partners purified
T4 construct: also called trimeric QH0692 gp140

HXB2 gp120 = molecular target: T5, HXB2 gp120 (HIV-1 clade B, isolate HXB2, UniProt P04578); test: ELISA; conditions: both partners purified
T5 construct: also called HXBc2; HXB2 Env; source: bought: Immune Technologies

SF162 gp120 [3] = molecular target: T2, SF162 gp120; test: ELISA; conditions: both partners purified
Q461e2 gp140 = Q461e2 gp140 (HIV-1 clade A, Q461e2, UniProt Q8JDJ9, strain); test: BLI; antibody-capture: IgG (15 µg/mL in PBS) on anti-human IgG Fc capture biosensors; Env in solution at one concentration (1.2 µM in the legend, 1.02 µM in the methods) in 1x kinetics buffer (PBS, 0.01% BSA, 0.02% Tween 20, 0.005% NaN3); conditions: both partners purified
Q168a2 gp140 = Q168a2 gp140 (HIV-1 clade A, Q168a2, UniProt Q8JDN0, strain); test: as above; conditions: both partners purified
426c gp140 [4] = molecular target: 426c gp140 (HIV-1 clade C, 426c, UniProt M4Q8P8, strain); test: as above; conditions: both partners purified; remark: listed apart in the source

Binder | binding result (QH0692 gp120) | binding result (SF162 gp140 trimer) | binding result (HXB2 gp120) | binding result (SF162 gp120 [3]) | other results
B1 | no binding (tested: 100 nM; less than 0.2 nM shift) |  |  |  | 
B2 | no binding (tested: 100 nM; less than 0.2 nM shift) |  |  |  | 
B3 |  | binds |  |  | neutralisation of SF162 virions (luciferase reporter cells), IC50 (SF162 gp120 [1]): 0.01 µg/mL; binding result (426c gp140 [2]): binds; binding result (QH0692 gp140 trimer): binds
B4 |  |  | binds | no binding (tested: 30 µg/mL) | 
B5 |  |  | no binding (tested: 30 µg/mL) | no binding (tested: 30 µg/mL) | 
B6 |  | no binding (tested: 30 µg/mL) |  |  | binding result (Q461e2 gp140): no binding (tested: 1.2 µM); binding result (Q168a2 gp140): no binding (tested: 1.2 µM); binding result (426c gp140 [4]): no binding (tested: 1.2 µM)
